The values that follow come from article PMC5667506, “Potent and selective inhibition of SH3 domains with dirhodium metalloinhibitors” (Chemical Science, 2015).

What all share (conditions): read-out: affinity
In test [1] the target is T1, Lyn SH3 H78A mutant (Homo sapiens, UniProt P07948, H78A).
T1 construct: The lyn SH3 domain was amplified by PCR using Phusion DNA polymerase; GST (N, cleaved yes); made in house; host or cells: E. coli BL21 (DE3)
Description: Binding to Lyn SH3 H78A mutant. The procedure:
(§1) The remarkable 6 nM affinity, far stronger than that of any reported non-protein ligand for SH3 domains, led us to study the structural basis of the observed affinity. […] The H78A and H96A double mutant binds much more weakly (>5 μM). […] That the majority of the stabilization energy comes from the first histidine coordination is consistent with the negative cooperativity generally seen for axial coordination to rhodium(II): a second coordination in solution is roughly two orders of magnitude less favorable.[40]–[43]
(§2) Abl SH3 domain preparation. The abl SH3 domain was amplified by PCR using Phusion DNA polymerase (Finnzymes). The
(§3) reactions were performed following manufacture's protocol with Phusion HF buffer and 5% DMSO. Primers were designed as
(§4) follows: 5'-[…]-3' (BamHI site underlined) and a reverse primer, 5'-
(§5) -3' (EcoRI site underlined). The resultant product was digested with
(§6) BamHI and EcoRI and subcloned into BamHI-EcoRI sites of pGex-KTO. Confirmed PCR fidelity by sequencing.
(§7) Hck SH3 domain preparation. The hck SH3 domain was amplified by PCR using Phusion DNA polymerase (Finnzymes). The
(§8) Lyn SH3 domain preparation. The lyn SH3 domain was amplified by PCR using Phusion DNA polymerase (Finnzymes). The […]
(§9) assessed by SDS-PAGE using 12% Bis-Tris gels (Invitrogen). […]
(§10) concentrated, and aliquoted for storage at –80 °C. Concentration was determined using the absorbance at 280 nm (NanoDrop, […]

The target of test [2] is T2, Lyn SH3 H78A and H96A double mutant (Homo sapiens, UniProt P07948, H78A/H96A).
T2 construct: The lyn SH3 domain was amplified by PCR using Phusion DNA polymerase; GST (N, cleaved yes); made in house; host or cells: E. coli BL21 (DE3)
T2 sequence (P07948 63-123 H78A/H96A limits assumed): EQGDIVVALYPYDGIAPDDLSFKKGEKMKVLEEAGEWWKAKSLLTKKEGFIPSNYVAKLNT
Description: Binding to Lyn SH3 H78A and H96A double mutant. As to the method: as §1, §2, §3, §4, §5, §6, §7, §8, §9, §10

For test [3], the target named is T3, Lyn SH3 H96A mutant (Homo sapiens, UniProt P07948, H96A).
T3 construct: The lyn SH3 domain was amplified by PCR using Phusion DNA polymerase; GST (N, cleaved yes); made in house; host or cells: E. coli BL21 (DE3)
T3 sequence (P07948 63-123 H96A limits assumed): as the sequence (P07948 63-123 H78A/H96A limits assumed) above, with A16H counted along it
In words: Binding to Lyn SH3 H96A mutant. As to the method: as §1, §2, §3, §4, §5, §6, §7, §8, §9, §10

Rh2(OAc)3 = dirhodium(II) triacetate, bound to the side-chain carboxylate Some results are limits rather than exact numbers.

T1 sequence (P07948 63-123 H78A limits assumed): as the sequence (P07948 63-123 H78A/H96A limits assumed) above, with A34H counted along it

Turning to “AcVELARRPLPPLPN-NH2 (Ac-VE(Rh2(OAc)3)LARRPLPPLPN-NH2; also: metal complex: Glu2 carboxylate bound to dirhodium(II) triacetate) [S2E^Rh, rhodium(II) metallopeptide made from S2E peptide (Ac…-NH2) and Rh2(tfa)(OAc)3]”, the Kd in test [1] was 20 nM. “AcVELARRPLPPLPN-NH2 (Ac-VELARRPLPPLPN-NH2; also: Glu2 side-chain carboxylate bound to Rh2(OAc)3) [S2E^Rh, rhodium(II) metallopeptide made from S2E peptide (Ac…-NH2) and Rh2(tfa)(OAc)3]”: the Kd in test [2] was above 5000 nM; in test [3], 39 nM.
